Results as given in PMC9239094 (mBio, 2022).

B1: Sphingobacterium wenxiniae GldM′ (GldM truncated after the first periplasmic D1 domain, twin-Strep-tagged) (domain or fragment)
chain: MAGKKETPRQRMIGILYLVLLGLVALNVSDSILDAFKNLGNSLNTSTQNTQAGIDNMFLAFRETKLKENPERAQPILQKAEQAQALVQQLTSKVGELTTLLEGEGGGLDEETGDVKYRSSTDISARLMINEGRAKELREVITKTKAELLTLTNNEINLTLEAEDPAPRGGIKKTWEQANFGDGIPLTAAITALEKINADAKNAESAVVKHIFGKMDQAVVNLDQENLYFQGQFGSWSHPQFEKGGGSGGGSGGGSWSHPQFEK
B2: Porphyromonas gingivalis PorL (natural protein)
chain: MGHYRRYKNILEMYLASHKGRRLLNIVYSWGAAVVILGALFKLLHLPMGNEMLFVGMITEFLVFFISGFEKPAMEYHWEEVFPELDSKNPMDRREMEQRREYLREKAKEAAAYAERPSSVRLASASLGTQPQEQPKPATPFQSQLTGILPEEQIQRLSEGIDKLAEAGEQLARIGRTAAAMTESYEQMQADQEGLRLNSQSYIQQMESLSRNISGLNTIYEIQLKGISSQIDTIDRINRGLAHIRDMYDNSVIDSSSFRNENERMARQLTQLNEVYARLLQALTTNVGLPGMPGNFGASNPSSSGSSPL
B3: Porphyromonas gingivalis PorM′ (PorM truncated after the first periplasmic D1 domain, twin-Strep-tagged) (domain or fragment)
chain: MAVGSNGNANRQKMINLMYLVFIAMMALNVSSEVLDGFDKVDKSLTSSIDGSDKRNNLVLSELNTAYRTNPEKVKVWYERSLVLQKEADSLCTFIDDLKLAIARESDGKDAKVNDIRRKDNLDASSVVMLNPINGKGSTLRKEVDKFRELVATLMTDKAKLKLIEQALNTESGTKGKSWESSLFENMPTVAAITLLTKLQSDVRYAQGEVLADLVKSVDVGDYRVNS
B4: Schleiferia thermophila GldM′ (GldM truncated after the first periplasmic D1 domain, twin-Strep-tagged) (domain or fragment)
chain: MAQGKLSPRQRMINMMYLVLTALLALNISKDILEALTKLNEDLSSTVMTVEKKLAFIYQAFDLAASENPEKAGVWRDKAYEVKKQADELHNYLEGIKNDLIEITGGIDEKTNRPKGLDNREKVANYLLVNEGGKAREIRARLEQFRDNMKQYVDEEAALINMLEALFNTEKKKVGDVMIEWENATFEHFPLAAVIPFITGIQANVRNAEADIISHLQRNIGKTDLKFTDENLYFQGQFGSWSHPQFEKGGGSGGGSGGGSWSHPQFEK
B5: Capnocytophaga canimorsus GldM″ (GldM truncated after the D2 periplasmic domain, twin-Strep-tagged) (domain or fragment)
chain: MAGGNSPRQKMINLMYLVFISMLALNMGKEVLSAFGLMNEKLEASNEKANNANINAIQALEQNNAENPDQFAEAFQKSKKVKELSDSFYNYIEGIKGEVMNQVGEDKKDYQVMDKSDYLDQKFFVGDNYKPEGEEFVRQINDYKTQLVELLGGKEGTYGELVGKIDGNFNTNDVVDREGVTRKWLNYNFEGFPYIASVAKLSMMQSDIRATEQEVYAEMLKGQLKSQISMTNYTTLLEQSKGAYYQGESFDGAIVLGRKDASTRPNEVELMLDGRKLSASEFQIEDGKVKLKVGAGNAGEHKITGNLYFDQDGKRIAVPVSQVFSTIPKPENLYFQGQFGSWSHPQFEKGGGSGGGSGGGSWSHPQFEK

Experiments:
Assay in all cases: cryo-EM structure; single-particle cryo-EM of the complex purified in LMNG (Strep-Tactin XT, then SEC); samples at A280 of 1 on Quantifoil Au R1.2/1.3 grids, blotted at 4°C; SthGldLM′ also with fluorinated octyl maltoside in buffer W (100 mM Tris-HCl pH 8.0, 150 mM NaCl, 1 mM EDTA) plus 0.01% LMNG
[1] = target: Capnocytophaga canimorsus GldL (Capnocytophaga canimorsus)
[2] = target: Sphingobacterium wenxiniae GldL (Sphingobacterium wenxiniae)
[3] = target: Schleiferia thermophila GldL (Schleiferia thermophila)
[4] = target: the molecule itself

Molecule	stoichiometry N [4]	also measured
Capnocytophaga canimorsus GldL (natural protein)	–	stoichiometry N [1]: 5
Sphingobacterium wenxiniae GldL (natural protein)	–	stoichiometry N [2]: 5
Schleiferia thermophila GldL (natural protein)	–	stoichiometry N [3]: 5
B1	2	–
B2	5	–
B3	2	–
B4	2	–
B5	2	–
